The target of assay [1] is T1, hFcyRIIaH on hFcyRIIaH-expressing Jurkat cells (human, UniProt P12318 34-317).
T1 sequence (looked up): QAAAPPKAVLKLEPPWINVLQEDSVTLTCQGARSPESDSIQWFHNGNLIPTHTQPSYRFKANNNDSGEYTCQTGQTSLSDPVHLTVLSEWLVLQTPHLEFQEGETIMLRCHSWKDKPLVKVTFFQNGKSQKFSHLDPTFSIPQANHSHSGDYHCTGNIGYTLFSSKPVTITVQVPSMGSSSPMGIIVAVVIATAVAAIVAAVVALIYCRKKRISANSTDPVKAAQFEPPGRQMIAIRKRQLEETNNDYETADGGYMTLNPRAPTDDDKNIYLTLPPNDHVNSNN
Description: cell-based or functional assay.

Assay [2] deals with T2, human FcγRIIa H extracellular domain (human, UniProt P12318 34-217).
T2 construct: extracellular domain; Made by the method of WO2014104165; also called hFcγR IIa H; FcyRIIaH
T2 sequence (looked up): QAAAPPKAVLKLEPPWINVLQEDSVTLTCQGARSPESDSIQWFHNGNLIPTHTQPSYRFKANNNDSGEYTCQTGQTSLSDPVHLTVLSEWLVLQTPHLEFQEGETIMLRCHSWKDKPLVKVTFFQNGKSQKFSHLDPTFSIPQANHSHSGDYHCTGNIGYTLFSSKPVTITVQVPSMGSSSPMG
Description: SPR; KD for FcγRIIb divided by KD for this FcγR. (In general: SPR reads the build-up and loss of mass on a sensor chip optically.)

Assay [3] concerns the target T3, human FcγRIIIa F extracellular domain (human, UniProt P08637 17-208).
T3 construct: extracellular domain; Made by the method of WO2014104165; also called hFcγR IIIa F; FcyRIIIaF
Description: SPR; KD for FcγRIIb divided by KD for this FcγR.

Assay [4] deals with hFcyRIIIaV on hFcyRIIIaV-expressing Jurkat cells (human, UniProt P08637 17-254). The assay is described as follows: cell-based or functional assay.
Assay [5] addresses T4, human CTLA4 (soluble analyte of the Biacore assays of Reference Example 3-3) (human, UniProt P16410 36-161).
T4 construct: also called hCTLA4
T4 sequence: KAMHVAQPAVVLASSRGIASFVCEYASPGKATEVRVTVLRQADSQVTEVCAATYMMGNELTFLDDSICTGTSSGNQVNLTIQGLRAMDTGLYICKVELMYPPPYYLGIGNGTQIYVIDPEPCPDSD
Description: SPR, 1000 nM CTLA4, per unit antibody, no ATP.

The target in assay [6] is T4, human CTLA4 (soluble analyte of the …). Description: SPR, 1000 nM CTLA4, per unit antibody, ATP 10 uM.
The target is the same in assay [7]. Description: SPR, 1000 nM CTLA4, per unit antibody, ATP 100 uM.
The target is the same in assay [8]. Description: SPR, 1000 nM CTLA4, per unit antibody, ATP 1 uM.
Assay [9] concerns the target T5, human CTLA4 (hCTLA4-His-BAP: human CTLA4 extracellular region with C-terminal His-tag and BAP-tag) (human).
T5 construct: This tie is an inference
Description: SPR (Biacore T200, 37C), antibody captured, human CTLA4 at 1000 nM, ATP 100 uM.

Assay [10] addresses T5, human CTLA4 (hCTLA4-His-BAP: human …). Description: SPR (Biacore T200, 37C), antibody captured, human CTLA4 at 1000 nM, ATP 10 uM.
Assay [11] has the same target. Description: SPR (Biacore T200, 37C), antibody captured, human CTLA4 at 1000 nM, ATP 1 uM.
For assay [12] the target is unchanged. The assay is described as follows: SPR (Biacore T200, 37C), antibody captured, human CTLA4 at 1000 nM, no ATP.
Assay [13] addresses T4, human CTLA4 (soluble analyte of the …). The assay is described as follows: SPR Biacore T200.

Changes are numbered by the printed parent chain.

The values below come from patent EP4361176A1 (CHUGAI SEIYAKU KABUSHIKI KAISHA, dated 2024).

hFcyRIIIaV on hFcyRIIIaV-expressing Jurkat cells, sequence (P08637 17-254): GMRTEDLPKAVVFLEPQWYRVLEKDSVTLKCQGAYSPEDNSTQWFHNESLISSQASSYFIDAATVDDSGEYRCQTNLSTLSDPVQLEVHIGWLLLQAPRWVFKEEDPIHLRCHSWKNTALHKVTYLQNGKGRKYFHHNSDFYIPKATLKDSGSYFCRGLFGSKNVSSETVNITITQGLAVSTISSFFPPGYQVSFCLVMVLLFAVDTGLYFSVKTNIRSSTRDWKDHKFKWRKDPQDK
T3 sequence (P08637 17-208): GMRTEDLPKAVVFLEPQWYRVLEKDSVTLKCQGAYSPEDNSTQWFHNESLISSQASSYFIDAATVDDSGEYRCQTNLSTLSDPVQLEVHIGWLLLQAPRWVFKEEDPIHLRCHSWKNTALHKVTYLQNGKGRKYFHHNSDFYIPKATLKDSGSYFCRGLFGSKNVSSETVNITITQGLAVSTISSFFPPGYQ

B1: H240-Kn037/L73-k0//H240-Hl036/L73-k0 (antibody, human IgG1, kappa)
heavy 1: QDQLVQSGAEVKKPGASVKVSCKASGFNIKDTYIQWVRQAPGQGLEWMGRIDPLRKQTKYREKFEGRVTITADTSTNTAYMELSSLRSEDTAVYYCVRSGREFDYWGQGTLVTVSSASTKGPSVFPLAPSSKSTSGGTAALGCLVKDYFPEPVTVSWNSGALTSGVHTFPAVLQSSGLYSLSSVVTVPSSSLGTQTYICNVNHKPSNTKVDKKVEPKSCDKTHTCPPCPAPELLAGPDVFLFPPKPKDTLMISRTPEVTCVVVDVSHEDPEVKFNWYVDGVEVHNAKTKPREEQYNSTYRVVSVLTVLHQDWLNGKEYKCKVSNKALPAPEEKTISKAKGQPREPQVCTLPPSRDELTKNQVSLWCLVKGFYPSDIAVEWESNGQPENNYKTTPPVLDSDGSFFLYSKLTVDKSRWQQGNVFSCSVMHEALHNHYTQKSLSLSP
heavy 2: B1 heavy 1 with C348Y, D355C, W365S, L367A, Y406V
light: DIQMTQSPSSLSASVGDRVTITCRASQDIHKYIAWYQQKPGQAPRLLIQYTSTLQPGVPSRFSGSGSGTDYTFTISSLQPEDIATYYCLQYEQLRTFGGGTKVEIKRTVAAPSVFIFPPSDEQLKSGTASVVCLLNNFYPREAKVQWKVDNALQSGNSQESVTEQDSKDSTYSLSSTLTLSKADYEKHKVYACEVTHQGLSSPVTKSFNRGEC
notes: also called EGL-GASDIE; GASDIE
For B1, in assay [1], the “EC50 value (µg/mL), ADCP reporter bioassay (fold induction of luminescence), Hepa1-6/hEREG target cells” value is 0.0149 µg/mL. Besides, the figures for the “A/I ratio (KD for FcγRIIb divided by KD for each FcyR)” value in assay [2] and in [3] were 18.2 and 18.9, respectively. Besides, in [4], the “EC50 value (µg/mL), ADCC reporter bioassay (fold induction of luminescence), Hepa1-6/hEREG target cells” value was 0.0037 µg/mL.

B2: 04H1207-G1m/04L1086-lam1 (antibody, human IgG1, lambda, V domains shown)
VH: EVQLVESGGGLVKPGGSLRLSCAASGFTFSSKTMNWVRQAPGKGLEWVSSISTRSGYIYYAESVKGRFTISRDNAKNSLYLQMNSLRAEDTAVYYCARYGKREDMLWVFDYWGQGTLVTVSS
VL: QSALTQPPSASGSPGQTVTISCDGPSTGVGDYNYVHWYQQHPGKAPKLMIYFTSKKPSGVPDRFSGSKSGNTASLTVSGLQAEDEADYFCQTYAAPLGPMFGGGTKLTVLG
In the case of B2, the “Binding to Human CTLA4” value in assay [5] was determined as 0.013; in assay [6], 0.137; in assay [7], 0.196; in assay [8] it was 0.047.

B3: 04H1389-G1m/04L1086-lam1 (antibody, human IgG1, lambda, V domains shown)
VH: B2 VH with R54Q, G56H
VL: B2 VL
notes: Human IgG1 (G1m), human lambda
B3: the “Binding to Human CTLA4 (binding amount per unit amount of antibody)” value worked out at 0.193 in assay [9], 0.189 in assay [10], 0.138 in [11] and 0.022 in assay [12].

B4: 04H1208-G1m/04L1086-lam1 (antibody, human IgG1, lambda, V domains shown)
VH: B2 VH with E62R
VL: B2 VL
B4: the “Binding to Human CTLA4” value in assay [5] came out at 0.005; in [6] it was 0.108; in assay [7], 0.17; in [8], 0.03.

B5: 04H1077-G1m/04L1305-k0MT (antibody, human IgG1, kappa, V domains shown)
VH: B2 VH with G10D, S17G, K32R
VL: DIVMTQSPLSLPVTPGEPASISCDGPSTGVGDYNYVHWYQQKPGQAPRLLIYFTSKKPSGVPDRFSGSGSGTDFTLKISRVEAEDVGVYYCQTYAAPLGPMFGQGTKLEIKR
As for B5, the “Binding to Human CTLA4” value amounted to 0.018 in assay [5], 0.128 in assay [6], 0.185 in assay [7] and 0.046 in assay [8].

B6: 04H1077-G1m/04L1034-lam1 (antibody, human IgG1, lambda, V domains shown)
VH: B2 VH with G10D, S17G, K32R
VL: B2 VL with G28D, Y34W, H36S, Q91S
On to B6, for which the “Binding to Human CTLA4” value was 0.004 in assay [5], 0.041 in [6], 0.114 in [7] and 0.007 in assay [8].

B7: 04H1077-G1m/04L1086-lam1 (antibody, human IgG1, lambda, V domains shown)
VH: B2 VH with G10D, S17G, K32R
VL: B2 VL
For B7, the “Binding to Human CTLA4” value worked out at 0.01 in [5], 0.106 in [6], 0.181 in [7] and 0.031 in assay [8].

B8: 04H1077-G1m/04L1066-lam1 (antibody, human IgG1, lambda, V domains shown)
VH: B2 VH with G10D, S17G, K32R
VL: B2 VL with G28D, Y34W, Q91S
In the case of B8, the “Binding to Human CTLA4” value in assay [5] was determined as 0.02; in assay [6], 0.142; in assay [7] it was 0.185; in assay [8], 0.057.

B9: 04H1077-G1m/04L1041-lam1 (antibody, human IgG1, lambda, V domains shown)
VH: B2 VH with G10D, S17G, K32R
VL: B2 VL with G28D, Q91S
As to B9, the “Binding to Human CTLA4” value in [5] was determined as 0.006; in [6], 0.094; in [7] it was 0.172; in assay [8], 0.023.

B10: 04H1389v373-G1m/04L1086-lam1 (antibody, human IgG1, lambda)
heavy: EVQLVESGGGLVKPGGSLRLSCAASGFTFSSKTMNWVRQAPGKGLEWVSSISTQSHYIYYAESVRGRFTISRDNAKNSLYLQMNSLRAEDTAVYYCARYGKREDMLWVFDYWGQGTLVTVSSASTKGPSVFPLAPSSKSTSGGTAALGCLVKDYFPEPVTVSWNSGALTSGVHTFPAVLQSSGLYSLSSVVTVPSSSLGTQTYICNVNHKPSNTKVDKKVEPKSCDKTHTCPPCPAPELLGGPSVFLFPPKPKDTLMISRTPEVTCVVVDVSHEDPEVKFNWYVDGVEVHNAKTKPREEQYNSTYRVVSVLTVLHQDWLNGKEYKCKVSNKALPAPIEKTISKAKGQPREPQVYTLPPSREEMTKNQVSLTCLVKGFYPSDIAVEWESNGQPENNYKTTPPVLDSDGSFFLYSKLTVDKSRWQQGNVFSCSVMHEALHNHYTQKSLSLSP
light: QSALTQPPSASGSPGQTVTISCDGPSTGVGDYNYVHWYQQHPGKAPKLMIYFTSKKPSGVPDRFSGSKSGNTASLTVSGLQAEDEADYFCQTYAAPLGPMFGGGTKLTVLGQPKAAPSVTLFPPSSEELQANKATLVCLISDFYPGAVTVAWKADSSPVKAGVETTTPSKQSNNKYAASSYLSLTPEQWKSHRSYSCQVTHEGSTVEKTVAPTECS
B10: the binding result in [13] is recorded as “binds”.

B11: 04H1077-G1m/04L1067-lam1 (antibody, human IgG1, lambda, V domains shown)
VH: B2 VH with G10D, S17G, K32R
VL: B2 VL with Q91S
On to B11, for which the “Binding to Human CTLA4” value in [5] was determined as 0.012; in assay [6], 0.131; in [7], 0.192; in assay [8] it was 0.041.

B12: 04H1637-G1m/04L1086-lam1 (antibody, human IgG1, lambda)
heavy: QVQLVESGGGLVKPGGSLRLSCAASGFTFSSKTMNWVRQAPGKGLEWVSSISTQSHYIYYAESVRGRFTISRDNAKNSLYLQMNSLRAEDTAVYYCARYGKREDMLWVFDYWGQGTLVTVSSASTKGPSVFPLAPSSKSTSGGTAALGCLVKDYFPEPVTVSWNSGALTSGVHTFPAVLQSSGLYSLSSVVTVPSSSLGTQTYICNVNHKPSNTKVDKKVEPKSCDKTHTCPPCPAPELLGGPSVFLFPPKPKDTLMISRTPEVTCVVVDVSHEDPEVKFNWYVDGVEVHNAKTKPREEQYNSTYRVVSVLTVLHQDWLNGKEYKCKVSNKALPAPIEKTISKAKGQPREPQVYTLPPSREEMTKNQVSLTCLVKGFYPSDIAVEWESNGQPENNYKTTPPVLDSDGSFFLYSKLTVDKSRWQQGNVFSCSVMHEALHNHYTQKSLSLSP
light: B10 light
For B12, the binding result in assay [13] was “binds”.
